Experimental data: patent publication US8937153B2, “Compositions, methods and uses” (Affibody AB, priority 2007, dated 2015)

How the values were obtained:
[1] = Solubility in aqueous solvents (general statement); type: physicochemical
Source text: For example, 30% organic solvent is needed to keep the conjugate in solution.

[2] = target: MSA (mouse serum albumin) (Mus musculus, UniProt P07724); experiment: Biosensor (Biacore) analysis of ABD variants' binding to mouse serum albumin; conditions: N-terminal His6-tagged proteins injected at 25 nM; MSA immobilized 350 RU; qualitative measure of relative affinities
Method: (§1) ABDwt and the twelve ABD variants, all sub-cloned in pAY442 as described above, were expressed in E. coli BL21(DE3) as fusions to an N-terminal His6-tag and purified by IMAC. A colony of each ABD variant was used to inoculate 5 ml TSB medium supplemented with 50 μg/ml kanamycin. The cultures were grown over night at 37° C. The following day, 50 μl of each culture were inoculated separately to 100 ml TSB+YE medium supplemented with 50 μg/ml kanamycin in a 1 liter flask. The cultures were grown at 100 rpm at 37° C. to an OD600 of 0.7-1, after which IPTG was added to a final concentration of 0.5 mM and cells were incubated at room temperature over night at 100 rpm. Cultures were harvested by centrifugation at 8000 g for 5 minutes and pellets were stored in a freezer until protein preparation.
(§2) The His6-tagged proteins were IMAC purified under denatured conditions using Ni-NTA Superflow columns and QIAsoft 4.1, protein/Ni-NTA Superflow 96 denaturing large scale 2 Vac4-24 samples, on a Biorobot 3000 (Qiagen). The buffer was exchanged to PBS using a dialysis cassette (Slide-A-Lyser, 3.5 kDa; Pierce cat. no. 66330) by dialyzing against 5 l PBS for 2 h followed by an additional dialysis over night. […]

[3] = target: T1, HSA (human serum albumin) (Homo sapiens, UniProt P02768); experiment: Biosensor analysis for binding kinetics to human serum albumin (Example 3); conditions: His6-tagged; HSA immobilized 450 RU; values estimated
Method: ABD00003, ABD00053, ABD00239 and ABDwt were expressed in E. coli BL21(DE3) cells as fusions to an N-terminal His6-tag using constructs as described in Example 2, and purified by IMAC. A colony of each ABD variant was used to inoculate 10 ml TSB medium supplemented with 50 μg/ml kanamycin. The cultures were grown over night at 37° C. The following day, 500 μl of each culture were inoculated separately to 500 ml TSB+YE medium supplemented with 50 μg/ml kanamycin in a 5 liter flask. The cultures were grown at 100 rpm and 37° C. to an OD600 of 0.7-1, which was followed by addition of IPTG to a final concentration of 0.5 mM and incubated at room temperature over night. Cultures were harvested by centrifugation at 8000 g for 5 minutes and pellets were stored at −20° C. until protein preparation.
The His6-tagged proteins were IMAC purified under denaturing conditions using His-Gravitrap™ kit (GE Healthcare). The pellets were re-suspended (vortexed) in 20 ml of the denaturation buffer B-7M (100 mM NaH2PO4, 10 mM Tris-Cl, 7 M urea, pH 8) and 8 μl benzonase was added.
Biosensor analysis on a Biacore2000 instrument (Biacore) was performed with HSA (SIGMA, cat. no. A3782-5G) immobilized by amine coupling onto the carboxylated dextran layer on surfaces of a CM-5 chip (research grade; Biacore), according to the manufacturer's recommendations. […] One cell surface on the chip was activated and deactivated and used as reference cell during injections. The purified His6-ABD samples were diluted in HBS-EP (Biacore) to 4, 10, 40, 100 and 400 nM for ABDwt and to 0.2, 0.8, 2, 5 and 20 nM for the selected ABD variants. The samples were injected at a constant flow-rate of 25 μl/min for 10 min, followed by injection of HBS-EP for 3 hours. The surfaces were regenerated with two injections of 20 μl of 5 and 10 mM HCl.

[4] = target: T1, HSA (human serum albumin); experiment: Biosensor (Biacore) analysis of ABD variants' binding to human serum albumin (Example 2); conditions: N-terminal His6-tagged proteins injected at 25 nM; HSA immobilized 360 RU; qualitative measure of relative affinities
Method: as §1, §2

MSA (mouse serum albumin), sequence (P07724 25-608): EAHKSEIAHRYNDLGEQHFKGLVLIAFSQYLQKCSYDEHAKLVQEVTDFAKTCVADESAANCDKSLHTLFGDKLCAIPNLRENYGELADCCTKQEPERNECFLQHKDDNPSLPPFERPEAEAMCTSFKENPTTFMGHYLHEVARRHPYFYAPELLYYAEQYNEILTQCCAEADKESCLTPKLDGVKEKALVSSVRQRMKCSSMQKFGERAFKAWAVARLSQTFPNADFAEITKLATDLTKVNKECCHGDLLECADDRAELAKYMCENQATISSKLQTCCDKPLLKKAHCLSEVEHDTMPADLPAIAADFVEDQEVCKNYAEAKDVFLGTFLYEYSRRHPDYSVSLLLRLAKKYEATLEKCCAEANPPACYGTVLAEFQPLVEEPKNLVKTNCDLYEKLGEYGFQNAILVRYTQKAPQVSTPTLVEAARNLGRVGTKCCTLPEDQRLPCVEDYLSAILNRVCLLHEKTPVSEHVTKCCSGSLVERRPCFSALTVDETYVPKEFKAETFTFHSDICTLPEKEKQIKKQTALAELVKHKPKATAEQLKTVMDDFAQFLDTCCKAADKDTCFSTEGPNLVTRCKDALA

Compound	solubility in aqueous solvents [1]	Kd [2]	Kd [3]	ka to HSA [3]	kd to HSA [3]	Kd [4]
COc1cccc2c1C(=O)c1c(O)c3c(c(O)c1C2=O)C[C@@](O)(C(=O)CO)CC3O[C@H]1CC(NC(=O)OCc2ccc(NC(=O)OCc3ccc(NC(=O)[C@H](CCCNC(N)=O)NC(=O)[C@@H](NC(=O)CCCCCN4C(=O)C=CC4=O)C(C)C)cc3)cc2)C(O)[C@@H](C)O1 (stereo partly drawn) [free linker, Maleimide-Spacelinker-Doxorubicin]	low solubility	–	–	–	–	–
ABDwt	–	4.9 nM	1.2 nM	550000 M/s	0.00065 s⁻¹	1.5 nM
